Source: US8080523
Read-outs that look alike come from different tables or passages of the source.

How the values were obtained:
Kv1.2 [1] = assay: patch-clamp, ratio of Kd values; reference margatoxin on Kv1.3
Kv1.6 [2] = assay: as above
Kv3.2 [3] = assay: as above
Kv1.2 [4] = assay: patch-clamp, block of channel current
Kv1.6 [5] = assay: patch-clamp, block of channel current
Kv3.2 [6] = assay: patch-clamp, block of channel current
Kv1.3 (cloned) [7] = target: Kv1.3 (cloned) (UniProt P16390)
Kv1.3 (cloned) [8] = target: Kv1.3 (cloned) (UniProt P16390); remark: listed apart in the source
[9] = target: Kv1.1 (Mus musculus (Mouse)) (UniProt P16388); assay: patch-clamp, ratio of Kd values; reference ShK(L6) on Kv1.3
Sequence of Kv1.1 (Mus musculus (Mouse)) (P16388 whole entry): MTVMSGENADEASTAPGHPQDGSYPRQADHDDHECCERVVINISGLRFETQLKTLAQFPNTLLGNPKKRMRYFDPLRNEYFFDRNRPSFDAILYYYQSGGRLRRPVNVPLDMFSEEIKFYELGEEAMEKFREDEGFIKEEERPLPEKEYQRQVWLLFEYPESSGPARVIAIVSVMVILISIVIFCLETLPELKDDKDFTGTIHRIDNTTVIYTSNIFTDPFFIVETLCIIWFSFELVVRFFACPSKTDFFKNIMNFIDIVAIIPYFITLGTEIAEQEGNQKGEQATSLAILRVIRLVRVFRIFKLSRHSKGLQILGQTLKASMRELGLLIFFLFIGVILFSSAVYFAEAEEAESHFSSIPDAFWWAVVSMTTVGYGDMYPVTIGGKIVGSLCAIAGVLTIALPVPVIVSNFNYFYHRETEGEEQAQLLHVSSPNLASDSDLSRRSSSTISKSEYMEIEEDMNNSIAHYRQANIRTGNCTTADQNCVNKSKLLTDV

Kv1.1 = Kv1.1 (UniProt P16388)
Sequence of Kv1.1 (P16388 whole entry): as above

Sequence of Kv1.6 (P17658 whole entry): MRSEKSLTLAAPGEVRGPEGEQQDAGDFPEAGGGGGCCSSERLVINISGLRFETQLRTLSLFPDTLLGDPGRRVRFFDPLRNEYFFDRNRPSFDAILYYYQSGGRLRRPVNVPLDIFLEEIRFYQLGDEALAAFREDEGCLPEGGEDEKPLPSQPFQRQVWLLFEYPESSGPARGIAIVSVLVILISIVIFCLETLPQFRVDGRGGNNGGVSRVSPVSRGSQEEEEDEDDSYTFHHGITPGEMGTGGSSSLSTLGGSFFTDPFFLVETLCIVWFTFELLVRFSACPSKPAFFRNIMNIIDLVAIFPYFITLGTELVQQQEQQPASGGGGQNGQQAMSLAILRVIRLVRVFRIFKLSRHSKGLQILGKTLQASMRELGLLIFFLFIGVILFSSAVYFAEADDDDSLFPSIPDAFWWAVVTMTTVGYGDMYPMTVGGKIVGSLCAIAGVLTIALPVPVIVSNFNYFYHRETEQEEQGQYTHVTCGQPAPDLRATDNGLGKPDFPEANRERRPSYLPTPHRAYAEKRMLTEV
Sequence of Kv3.2 (P22462 whole entry): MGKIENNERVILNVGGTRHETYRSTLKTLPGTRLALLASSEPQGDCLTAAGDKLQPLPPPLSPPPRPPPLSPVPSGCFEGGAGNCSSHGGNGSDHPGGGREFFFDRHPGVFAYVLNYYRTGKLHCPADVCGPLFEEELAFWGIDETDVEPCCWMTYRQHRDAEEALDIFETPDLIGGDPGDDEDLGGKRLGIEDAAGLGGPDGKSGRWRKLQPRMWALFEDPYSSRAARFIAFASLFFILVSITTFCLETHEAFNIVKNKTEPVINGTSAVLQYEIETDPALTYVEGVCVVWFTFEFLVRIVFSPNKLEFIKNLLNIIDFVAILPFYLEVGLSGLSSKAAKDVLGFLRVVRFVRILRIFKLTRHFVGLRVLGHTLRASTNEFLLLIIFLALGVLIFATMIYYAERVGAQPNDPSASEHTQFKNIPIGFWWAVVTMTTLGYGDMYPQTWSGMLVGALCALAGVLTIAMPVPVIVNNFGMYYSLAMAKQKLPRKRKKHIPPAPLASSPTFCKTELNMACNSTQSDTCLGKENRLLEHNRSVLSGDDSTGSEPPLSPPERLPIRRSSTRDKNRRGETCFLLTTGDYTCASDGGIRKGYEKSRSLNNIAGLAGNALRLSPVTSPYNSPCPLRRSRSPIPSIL
Sequence of Kv1.2 (P63142 whole entry): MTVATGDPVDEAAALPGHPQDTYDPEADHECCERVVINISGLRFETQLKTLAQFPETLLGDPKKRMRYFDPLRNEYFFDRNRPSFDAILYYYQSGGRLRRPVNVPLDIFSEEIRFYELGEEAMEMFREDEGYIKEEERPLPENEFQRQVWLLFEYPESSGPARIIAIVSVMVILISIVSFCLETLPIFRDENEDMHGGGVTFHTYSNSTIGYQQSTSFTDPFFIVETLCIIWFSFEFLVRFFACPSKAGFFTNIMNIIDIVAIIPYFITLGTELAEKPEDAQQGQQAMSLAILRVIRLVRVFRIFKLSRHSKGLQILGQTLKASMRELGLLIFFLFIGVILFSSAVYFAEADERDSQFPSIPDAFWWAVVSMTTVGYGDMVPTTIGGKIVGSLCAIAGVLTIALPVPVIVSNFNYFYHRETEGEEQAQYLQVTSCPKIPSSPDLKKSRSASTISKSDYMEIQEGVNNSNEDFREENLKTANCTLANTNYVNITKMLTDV

Substance: Margatoxin (from UniProt P40755 1-39) (peptide)
- fold selectivity for Kv1.3 over this channel (Kv1.2 [1]): 5 fold
- fold selectivity for Kv1.3 over this channel (Kv1.6 [2]): > 1000 fold
- fold selectivity for Kv1.3 over this channel (Kv3.2 [3]): > 1000 fold
- Kd (Kv1.2 [4]): 0.52 nM
- Kd (Kv1.6 [5]): > 100 nM
- Kd (Kv3.2 [6]): > 100 nM

Substance: ShK toxin (peptide)
- Kd (Kv1.2 [4]): 10 nM
- Kd (Kv1.6 [5]): 0.2 nM
- Kd (Kv3.2 [6]): 5 nM

Substance: ShK(D5)
- Kd (Kv1.3 (cloned) [7]): 1.1 nM

Substance: ShK(L6)
- Kd (Kv1.3 (cloned) [8]): 0.01 nM

Substance: ShK(L6) (peptide)
- fold selectivity for Kv1.3 over this channel [9]: 11 fold

Substance: ShK-F6CA
- Kd (Kv1.1): 4 nM
